In US20230051715A1 (MABWELL THERAPEUTICS, published 2023):
Where a chain is given by its changes, count along the chain named. Names may count otherwise. One block for each binder: values may come before it.

What was measured:
[1] = molecular target: T1, human C1s mutant M9 (K336G, D343Y & E351A) (human, UniProt P09871 16-688); test: ELISA, plate coated with human C1s mutant M9: K336G, D343Y, E351A, OD450nm; the curve reaches only OD450 about 0.7 at 1000 ng/ml
T1 construct: The entry is the mutant itself
T1 sequence: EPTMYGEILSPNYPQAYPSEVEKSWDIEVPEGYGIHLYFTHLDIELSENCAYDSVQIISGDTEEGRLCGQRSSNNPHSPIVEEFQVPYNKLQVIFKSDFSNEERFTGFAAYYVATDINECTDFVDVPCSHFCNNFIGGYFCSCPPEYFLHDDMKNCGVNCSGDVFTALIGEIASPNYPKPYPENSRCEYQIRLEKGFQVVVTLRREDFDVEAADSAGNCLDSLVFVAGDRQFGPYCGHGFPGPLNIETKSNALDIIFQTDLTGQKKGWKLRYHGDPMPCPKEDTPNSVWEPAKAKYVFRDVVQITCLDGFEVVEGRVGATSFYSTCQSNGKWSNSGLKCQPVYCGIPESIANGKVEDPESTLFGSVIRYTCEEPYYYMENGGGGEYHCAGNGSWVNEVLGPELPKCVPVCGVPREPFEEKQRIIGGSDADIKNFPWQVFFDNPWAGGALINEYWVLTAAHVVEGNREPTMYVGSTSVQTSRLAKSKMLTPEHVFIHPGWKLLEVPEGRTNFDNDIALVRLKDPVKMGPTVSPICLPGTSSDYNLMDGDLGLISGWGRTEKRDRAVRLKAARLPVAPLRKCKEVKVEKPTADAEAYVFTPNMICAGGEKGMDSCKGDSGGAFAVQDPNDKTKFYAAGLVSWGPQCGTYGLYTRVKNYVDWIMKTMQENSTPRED
Protocol: (§1) ELISA was carried out by first coating 96-well plates with 200 ng/well of full-length or truncated C1s proteins overnight. The next morning, plates were blocked with SuperBlock T20 blocking buffer (Thermo Scientific 37536) for 1 h with gentle shaking. Then, various concentrations of anti-C1s antibodies diluted in SuperBlock T20 blocking buffer were added to the plates and incubated for 1 h with gentle shaking. Mouse IgG (Sigma-Aldrich 15381) and human IgG1 (BioXCell BP0297) were used as negative controls. The plates were washed before incubating with HRP conjugated secondary antibodies diluted in SuperBlock T20 blocking buffer (goat anti-mouse IgG (H+L) cross-adsorbed secondary antibody HRP (Invitrogen G-21040) or goat anti-human IgG antibody, HRP conjugate (Millipore AP309P)) for 1 h with gentle shaking. At last, the plates were washed and color developed with ELISA liquid HRP substrate (Sigma-Aldrich), followed by stopping the reaction with addition of 1M H₂SO₄ in the same volume as the ELISA liquid substrate. Bound antibody was measured by absorbance at OD₄₅₀ₙₘ.
Binding of anti-C1s antibodies to mutants M1-M20 of human C1s was measured by ELISA as described in Example 4, and results are shown in FIGS. 6B-6U. […]

[2] = molecular target: T2, human C1s deletion mutant 3 (NHCΔ33) (human, UniProt P09871 16-404); test: ELISA, C1s fragment coated on plate; hz2-8(H1L2 G80A), first of the two values
T2 construct: C-terminal 6xHis tag; also called human C1s (NHCΔ33); C1s (NHCΔ33)
T2 sequence: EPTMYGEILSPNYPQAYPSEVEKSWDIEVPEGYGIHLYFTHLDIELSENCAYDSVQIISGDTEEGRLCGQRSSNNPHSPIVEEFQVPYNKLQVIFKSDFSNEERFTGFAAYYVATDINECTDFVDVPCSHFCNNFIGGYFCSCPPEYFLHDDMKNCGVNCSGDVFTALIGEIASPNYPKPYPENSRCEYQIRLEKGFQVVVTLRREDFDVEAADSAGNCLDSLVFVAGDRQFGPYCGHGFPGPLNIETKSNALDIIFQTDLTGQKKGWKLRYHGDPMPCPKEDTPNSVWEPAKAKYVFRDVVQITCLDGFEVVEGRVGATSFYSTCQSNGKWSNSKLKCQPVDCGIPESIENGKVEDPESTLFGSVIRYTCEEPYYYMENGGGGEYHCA
Protocol: as §1
Binding of various anti-C1s antibodies to human C1s (NHCΔ33) (SEQ ID NO: 111) was carried out by ELISA as described in Example 4, and results are shown in FIG. 6A.

[3] = molecular target: T3, full-length human C1s (produced in house) (human, UniProt P09871 16-688); test: BLI (Octet RED96e), antibody on AHC biosensor; C1s Species: Human; R^2 0.9983
T3 construct: Called full-length; Partly auto-cleaved at R422-I423 on blots; also called HuC1s; Hu C1s
T3 sequence: T1 sequence with G336K, Y343D, A351E
Source text: At last, analyte was dissociated in 1×KB for 360 sec. Data analysis was done using OCTET® Data Analysis HT Software (Sartorius AG).

EC50 [1]: 0.013 µg/mL
B1: Anti-C1s antibody hz2-7(H1L2) (antibody, V domains shown)
VH: EVQLLESGGGLVQPGGSLRLSCAASGFTFSNYFMNWVRQAPGKGLEWVSEIRLKFTNYATHYADSVKGRFTISRDDSKSTLYLQMNSLRAEDTAVYYCTRDYGSRNGYFDYWGQGTLVTVSS
VL: DIVMTQTPLSLPVTPGEPASISCRSSKSLLHSNGNTFLYWFLQKPGQSPQLLIYRMSNLASGVPDRFSGSGSGTDFTLKISRVEAEDVGVYYCMQHLEYPYTFGGGTKLEIKR
notes: Humanized, human IgG1 / kappa; also called hz2-7(1L2)

EC50 [2]: 0.008 µg/mL
B2: Anti-C1s antibody hz2-8 (H1L2 G80A) (antibody, V domains shown)
VH: QVQLVQSGAEVKKPGASVKVSCKASGFNIKEYYMHWVRQAPEQGLEWMGWIDPENADTIYAQKFQGRVTITADTSTNTAYMELSSLRSEDTAVYYCARSRLFFAYWGQGTLVTVSS
VL: DIQMTQSPKSLSASVGDRVTITCRASQDVRTALDWYQQKPGQSPKLLIYSASYRYSGVPSRFSGSGSGTDFTLTISSLQPEDFATYYCQQQYTTPYTFGQGTKLEIKR
notes: Humanized variant with G80A in HC CDR2 (already in the entry), human IgG1 / kappa

Kd [3]: 0.012 nM
koff [3]: 3.9e-05 s⁻¹
kon [3]: 3.2e+06 M⁻¹ s⁻¹
B3: Anti-C1s antibody 2-7 (antibody, human IgG1, kappa, V domains shown)
VH: EVKLEESGGGLVPPGGSMKLSCVASGFTFSNYFMNWVRQSPEKGLEWVAEIRLKFTNYATHYAESVEGRFTISRDDSKSSVYLQMNNLRAEDTGIYYCTRDYGSRNGYFDYWGQGTTLTVSS
VL: DIVMTQAAPSVPVTPGESVSISCRSSKSLLHSNGNTFLYWFLQRPGQSPQLLIYRMSNLASGVPDRFSGSGSGTAFTLRVSRVEAEDVGIYYCMQHLEYPYTFGGGTKLEIKT
notes: the HC/LC entries may hold it too; also called clone 2-7
